This note sets out measurements from article PMC12416549 (2024).

T1: TNFR1 (Homo sapiens, UniProt P19438)
T1 chain: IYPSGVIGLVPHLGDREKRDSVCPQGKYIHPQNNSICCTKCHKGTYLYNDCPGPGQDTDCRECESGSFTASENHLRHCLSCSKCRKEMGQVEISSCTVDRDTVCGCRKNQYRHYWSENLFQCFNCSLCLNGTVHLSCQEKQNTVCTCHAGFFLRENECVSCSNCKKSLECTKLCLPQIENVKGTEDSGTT

B1: L94R (designed binder)
chain: SMEEEVEKAAKEYEKKKKEAIEKHLEKLKAKDKEAAERFLKELEEAAKEYAKDEAKTMSEEEAKRRAKKYKEKVLLSELSEEEQKEIKEAEEKRVRTILKYVEEAAK
B2: V95I (designed binder)
chain: SMEEEVEKAAKEYEKKKKEAIEKHLEKLKAKDKEAAERFLKELEEAAKEYAKDEAKTMSEEEAKRRAKKYKEKVLLSELSEEEQKEIKEAEEKLIRTILKYVEEAAK
B3: S59D (designed binder)
chain: SMEEEVEKAAKEYEKKKKEAIEKHLEKLKAKDKEAAERFLKELEEAAKEYAKDEAKTMDEEEAKRRAKKYKEKVLLSELSEEEQKEIKEAEEKLVRTILKYVEEAAK
B4: E78Q (designed binder)
chain: SMEEEVEKAAKEYEKKKKEAIEKHLEKLKAKDKEAAERFLKELEEAAKEYAKDEAKTMSEEEAKRRAKKYKEKVLLSQLSEEEQKEIKEAEEKLVRTILKYVEEAAK
B5: A10S (designed binder)
chain: SMEEEVEKASKEYEKKKKEAIEKHLEKLKAKDKEAAERFLKELEEAAKEYAKDEAKTMSEEEAKRRAKKYKEKVLLSELSEEEQKEIKEAEEKLVRTILKYVEEAAK
B6: R96I (designed binder)
chain: SMEEEVEKAAKEYEKKKKEAIEKHLEKLKAKDKEAAERFLKELEEAAKEYAKDEAKTMSEEEAKRRAKKYKEKVLLSELSEEEQKEIKEAEEKLVITILKYVEEAAK
B7: S1K (designed binder)
chain: KMEEEVEKAAKEYEKKKKEAIEKHLEKLKAKDKEAAERFLKELEEAAKEYAKDEAKTMSEEEAKRRAKKYKEKVLLSELSEEEQKEIKEAEEKLVRTILKYVEEAAK
B8: A9Y (designed binder)
chain: SMEEEVEKYAKEYEKKKKEAIEKHLEKLKAKDKEAAERFLKELEEAAKEYAKDEAKTMSEEEAKRRAKKYKEKVLLSELSEEEQKEIKEAEEKLVRTILKYVEEAAK
B9: S59V (designed binder)
chain: SMEEEVEKAAKEYEKKKKEAIEKHLEKLKAKDKEAAERFLKELEEAAKEYAKDEAKTMVEEEAKRRAKKYKEKVLLSELSEEEQKEIKEAEEKLVRTILKYVEEAAK
B10: M58Y (designed binder)
chain: SMEEEVEKAAKEYEKKKKEAIEKHLEKLKAKDKEAAERFLKELEEAAKEYAKDEAKTYSEEEAKRRAKKYKEKVLLSELSEEEQKEIKEAEEKLVRTILKYVEEAAK
B11: E45A (designed binder)
chain: SMEEEVEKAAKEYEKKKKEAIEKHLEKLKAKDKEAAERFLKELEAAAKEYAKDEAKTMSEEEAKRRAKKYKEKVLLSELSEEEQKEIKEAEEKLVRTILKYVEEAAK
B12: K48I (designed binder)
chain: SMEEEVEKAAKEYEKKKKEAIEKHLEKLKAKDKEAAERFLKELEEAAIEYAKDEAKTMSEEEAKRRAKKYKEKVLLSELSEEEQKEIKEAEEKLVRTILKYVEEAAK
B13: R65F (designed binder)
chain: SMEEEVEKAAKEYEKKKKEAIEKHLEKLKAKDKEAAERFLKELEEAAKEYAKDEAKTMSEEEAKFRAKKYKEKVLLSELSEEEQKEIKEAEEKLVRTILKYVEEAAK
B14: E12M (designed binder)
chain: SMEEEVEKAAKMYEKKKKEAIEKHLEKLKAKDKEAAERFLKELEEAAKEYAKDEAKTMSEEEAKRRAKKYKEKVLLSELSEEEQKEIKEAEEKLVRTILKYVEEAAK
B15: K64H (designed binder)
chain: SMEEEVEKAAKEYEKKKKEAIEKHLEKLKAKDKEAAERFLKELEEAAKEYAKDEAKTMSEEEAHRRAKKYKEKVLLSELSEEEQKEIKEAEEKLVRTILKYVEEAAK
B16: K31Q (designed binder)
chain: SMEEEVEKAAKEYEKKKKEAIEKHLEKLKAQDKEAAERFLKELEEAAKEYAKDEAKTMSEEEAKRRAKKYKEKVLLSELSEEEQKEIKEAEEKLVRTILKYVEEAAK
B17: L25S (designed binder)
chain: SMEEEVEKAAKEYEKKKKEAIEKHSEKLKAKDKEAAERFLKELEEAAKEYAKDEAKTMSEEEAKRRAKKYKEKVLLSELSEEEQKEIKEAEEKLVRTILKYVEEAAK
B18: A20W (designed binder)
chain: SMEEEVEKAAKEYEKKKKEWIEKHLEKLKAKDKEAAERFLKELEEAAKEYAKDEAKTMSEEEAKRRAKKYKEKVLLSELSEEEQKEIKEAEEKLVRTILKYVEEAAK
B19: K71W (designed binder)
chain: SMEEEVEKAAKEYEKKKKEAIEKHLEKLKAKDKEAAERFLKELEEAAKEYAKDEAKTMSEEEAKRRAKKYWEKVLLSELSEEEQKEIKEAEEKLVRTILKYVEEAAK
B20: K64R (designed binder)
chain: SMEEEVEKAAKEYEKKKKEAIEKHLEKLKAKDKEAAERFLKELEEAAKEYAKDEAKTMSEEEARRRAKKYKEKVLLSELSEEEQKEIKEAEEKLVRTILKYVEEAAK
B21: K107A (designed binder)
chain: SMEEEVEKAAKEYEKKKKEAIEKHLEKLKAKDKEAAERFLKELEEAAKEYAKDEAKTMSEEEAKRRAKKYKEKVLLSELSEEEQKEIKEAEEKLVRTILKYVEEAAA
B22: K48Y (designed binder)
chain: SMEEEVEKAAKEYEKKKKEAIEKHLEKLKAKDKEAAERFLKELEEAAYEYAKDEAKTMSEEEAKRRAKKYKEKVLLSELSEEEQKEIKEAEEKLVRTILKYVEEAAK
B23: K93Y (designed binder)
chain: SMEEEVEKAAKEYEKKKKEAIEKHLEKLKAKDKEAAERFLKELEEAAKEYAKDEAKTMSEEEAKRRAKKYKEKVLLSELSEEEQKEIKEAEEYLVRTILKYVEEAAK
B24: K68Y (designed binder)
chain: SMEEEVEKAAKEYEKKKKEAIEKHLEKLKAKDKEAAERFLKELEEAAKEYAKDEAKTMSEEEAKRRAYKYKEKVLLSELSEEEQKEIKEAEEKLVRTILKYVEEAAK
B25: K18S (designed binder)
chain: SMEEEVEKAAKEYEKKKSEAIEKHLEKLKAKDKEAAERFLKELEEAAKEYAKDEAKTMSEEEAKRRAKKYKEKVLLSELSEEEQKEIKEAEEKLVRTILKYVEEAAK

The assay concerns the target T1, TNFR1. The experiment in a line: yeast display SC50.
As to B1, the “apparent Kd (screen)” value was 4.83 nM.
The value for B2 was 1.69 nM; that for B3 was 2.25 nM.
Next, B4: 0.718 nM; B5: 0.446 nM; B6: 0.718 nM.
In the case of B7, the “apparent Kd (screen)” value stood at 0.446 nM.
On to B8, for which the “apparent Kd (screen)” value came out at 0.718 nM.
For the molecule B9, the “apparent Kd (screen)” value amounted to 1.54 nM.
As for B10, the “apparent Kd (screen)” value worked out at 24.4 nM.
B11: the “apparent Kd (screen)” value stood at 2.05 nM.
With B12, the “apparent Kd (screen)” value came out at 0.49 nM.
B13: the “apparent Kd (screen)” value worked out at 7.07 nM.
Take B14: the “apparent Kd (screen)” value was 0.539 nM.
For the molecule B15, the “apparent Kd (screen)” value was 0.593 nM.
Regarding B16, the “apparent Kd (screen)” value stood at 1.16 nM.
With B17, the “apparent Kd (screen)” value came to 1.05 nM.
In the case of B18, the “apparent Kd (screen)” value amounted to 2.25 nM.
For B19, the “apparent Kd (screen)” value was found to be 4.39 nM.
As for B20, the “apparent Kd (screen)” value stood at 0.869 nM.
The value for B21 was 1.54 nM.
As for B22, the “apparent Kd (screen)” value was determined as 0.653 nM.
Consider B23, for which the “apparent Kd (screen)” value was found to be 2.25 nM.
Take B24: the “apparent Kd (screen)” value turned out to be 3.99 nM.
The value for B25 was 0.446 nM.
